Reference: US20030228593A1

Target: biotinylated 151AcPhe mutant GFP [GFP: P42212]
Assay: SAv-dependent gel-shift assay, 10% native PAGE

streptavidin (from UniProt P22629 37-163)
percent of GFP band retarded: 80%
